Assay results reported in the supplement of paper PMC7877785.
± gives the uncertainty stated by the source.

Experiment: self-splicing fitness, log relative to wild type (ln ratio); higher = more splicing; Tetrahymena group I intron in knt gene, E. coli kanamycin selection, DiMSum; sequences stand for … in CUCUCU…GGAGGGAAAAGUUAUCAGGCAUGCACCUGGUAGCUAGUCUUUAAACCAAUAGAUUGCAUCGGUUUAAAAGGCAAGACCGUCAAAUUGCGGGAAAGGGGUCAACAGCCGUUCAGUACCAAGUCUCAGGGGAAACUUUGAGAUGGCCUUGCAAAGGGUAUGGUAAUAAGCUGACGGACAUGGUCCUAACCACGCAGCCAAGUCCUAAGUCAACAGAUCUUCUGUUGAUAUGGAUGCAGUUCACAGACUAAAUGUCGGUCGGGGAAGAUGUAUUCUUCUCAUAAGAUAUAGUCGGACCUCUCCUUAAUGGGAGCUAGCGGAUGAAGUGAUGCAACACUGGAGCCGCUGGGAACUAAUUUGUAUGCGAAAGUAUAUUGAUUAGUUUUGGAGUACUCGUGGUCG
Summary of the method: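 A randomised library covering all eight P1ex-region intron nucleotides was built with the intron in the knt kanamycin-resistance gene on pET-22b(+) and held in E. coli BL21(DE3). Cells were grown overnight at 37°C or 30°C on LB agar, with or without 25 μg/mL kanamycin, plus 100 μg/mL carbenicillin, 50 μM IPTG and 0.2% rhamnose, and pooled colonies were amplicon-sequenced on an Illumina HiSeq 2500. DiMSum fitness is the error-weighted combination of wild-type-normalised replicate fold changes, kanamycin versus none.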

Sequence | self-splicing fitness (ln) (30 °C) | self-splicing fitness (ln) (37 °C)
GUCCAGCAAUAUUACGGUUU | -0.181 ± 0.052 | 0.389 ± 0.064
AGUCAGCAAUAUUACGGGGC | – | -2.31 ± 0.45
UGUUAGCAAUAUUACGAACU | -0.445 ± 0.15 | 0.216 ± 0.18
CUAGAGCAAUAUUACGAGAC | -2.63 ± 0.29 | -0.86 ± 0.3
UUAAAGCAAUAUUACGCCUA | 0.0988 ± 0.091 | 0.8 ± 0.14
AACAAGCAAUAUUACGAGGG | -3 ± 0.11 | -1.35 ± 0.15
CAACAGCAAUAUUACGCUUA | -2.13 ± 0.12 | -0.653 ± 0.09
GCAUAGCAAUAUUACGUUCA | -1.41 ± 0.11 | -0.882 ± 0.13
UACUAGCAAUAUUACGAGGU | -3.47 ± 0.42 | -2 ± 0.29
GACCAGCAAUAUUACGAAGA | -1.44 ± 0.14 | -0.589 ± 0.12
CAGAAGCAAUAUUACGUUCG | -0.642 ± 0.051 | 0.234 ± 0.064
CUAAAGCAAUAUUACGAGCC | -1.33 ± 0.18 | -0.475 ± 0.44
AUGCAGCAAUAUUACGGCAA | 0.0857 ± 0.12 | 0.0922 ± 0.12
UGCAAGCAAUAUUACGCUGC | -3.62 ± 0.29 | -2.4 ± 0.3
CGCAAGCAAUAUUACGAUCU | -1.61 ± 0.073 | -0.39 ± 0.085
AUUUAGCAAUAUUACGCGGG | -2.72 ± 0.19 | -1.96 ± 0.16
UCCUAGCAAUAUUACGUGGG | -3.24 ± 0.15 | -2.5 ± 0.2
UGCCAGCAAUAUUACGGUUU | -0.471 ± 0.075 | -0.237 ± 0.096
CGGAAGCAAUAUUACGACGG | -0.101 ± 0.13 | -0.695 ± 0.14

Sequence | self-splicing fitness (ln) (30 °C) | self-splicing fitness (ln) (37 °C)
GGACAGCAAUAUUACGUGGA | -1.08 ± 0.076 | -1.29 ± 0.075
UGACAGCAAUAUUACGUUAG | -1.01 ± 0.066 | -0.987 ± 0.089
GGUUAGCAAUAUUACGUACG | -0.392 ± 0.14 | 0.0535 ± 0.18
UUUGAGCAAUAUUACGCUGC | -3.12 ± 0.47 | –
CCAUAGCAAUAUUACGGCAU | -4.02 ± 0.24 | -1.78 ± 0.2
UAGUAGCAAUAUUACGAGUG | -1.66 ± 0.081 | -0.549 ± 0.083
AAAUAGCAAUAUUACGACUU | 0.559 ± 0.099 | 0.387 ± 0.13
CUGUAGCAAUAUUACGCAUU | -3.8 ± 0.27 | -3.28 ± 0.47
CAAAAGCAAUAUUACGUGCC | -2.99 ± 0.24 | -1.41 ± 0.23
UGAAAGCAAUAUUACGUAAG | -0.503 ± 0.087 | -0.0639 ± 0.12
UGACAGCAAUAUUACGUCGA | -0.222 ± 0.092 | -0.143 ± 0.098
AGGUAGCAAUAUUACGACGC | -0.0643 ± 0.017 | 0.0178 ± 0.035
CCCUAGCAAUAUUACGCGCU | – | -1.78 ± 0.47
GGCGAGCAAUAUUACGUAGU | -1.57 ± 0.13 | -0.422 ± 0.14
CUAAAGCAAUAUUACGUUAA | -3.6 ± 0.11 | -2.53 ± 0.15
CGUCAGCAAUAUUACGUAAU | -2.93 ± 0.17 | -1.2 ± 0.13
UAGUAGCAAUAUUACGCUUU | -2.3 ± 0.25 | -2.18 ± 0.18
GGGUAGCAAUAUUACGUGAU | -2.64 ± 0.19 | -0.239 ± 0.18
UAUAAGCAAUAUUACGGCGC | -1.25 ± 0.11 | -1.35 ± 0.14
